We go through two molecules from patent US20100135951A1 (UAB RESEARCH FOUNDATION, published 2010).

Assay [1] deals with T1, cIAP1 (human, UniProt Q13490 1-618). Briefly: TRAIL-R2 co-IP from transfected TRA-8-resistant tumor cells, Western blot with anti-DDX3 and anti-cIAP1. Background: A western blot detects proteins with antibodies after separation by electrophoresis.
Protocol: (§1) The transfected cells were incubated with 500 ng/ml TRA-8 overnight.
Four type cells were transfected with DDX3ΔCARD. […] Furthermore, the susceptibility of transfected cells to TRA-8-mediated apoptosis was examined using the ATPLITE assay.
The target of assay [2] is T1, cIAP1. Description: nickel bead pull-down of His-tagged DDX3 from transfected HEK293A cells, anti-cIAP1 Western blot.
Protocol: as §1

T1 sequence (Q13490 whole entry): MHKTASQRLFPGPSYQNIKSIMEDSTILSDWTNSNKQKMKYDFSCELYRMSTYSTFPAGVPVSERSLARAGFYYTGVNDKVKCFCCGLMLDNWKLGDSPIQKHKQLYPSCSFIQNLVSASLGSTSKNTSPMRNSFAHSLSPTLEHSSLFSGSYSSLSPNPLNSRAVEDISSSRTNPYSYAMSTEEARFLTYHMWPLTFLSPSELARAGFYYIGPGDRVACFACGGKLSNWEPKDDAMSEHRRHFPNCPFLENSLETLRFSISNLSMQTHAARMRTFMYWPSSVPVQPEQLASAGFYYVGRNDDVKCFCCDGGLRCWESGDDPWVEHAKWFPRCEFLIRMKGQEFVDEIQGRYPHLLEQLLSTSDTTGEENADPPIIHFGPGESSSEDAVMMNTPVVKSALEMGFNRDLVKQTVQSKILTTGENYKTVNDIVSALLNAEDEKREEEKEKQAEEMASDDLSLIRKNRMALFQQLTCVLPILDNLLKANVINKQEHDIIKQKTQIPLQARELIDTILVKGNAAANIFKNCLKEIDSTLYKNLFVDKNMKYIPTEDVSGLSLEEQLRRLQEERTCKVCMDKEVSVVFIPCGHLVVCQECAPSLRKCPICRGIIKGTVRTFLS

B1: DDX3ΔCARD (DDX3Δ151-662) (other)
chain: FSGGNTGINFEKYDDIPVEATGNNCPPHIESFSDVEMGEIIMGNIELTRYTRPTPVQKHAIPIIKEKRDLMACAQTGSGKTAAFLLPILSQIYSDGPGEALRAMKENGRYGRRKQYPISLVLAPTRELAVQIYEEARKFSYRSRVRPCVVYGGADIGQQIRDLERGCHLLVATPGRLVDMMERGKIGLDFCKYLVLDEADRMLDMGFEPQIRRIVEQDTMPPKGVRHTMMFSATFPKEIQMLARDFLDEYIFLAVGRVGSTSENITQKVVWVEESDKRSFLLDLLNATGKDSLTLVFVETKKGADSLEDFLYHEGYACTSIHGDRSQRDREEALHQFRSGKSPILVATAVAARGLDISNVKHVINFDLPSDIEEYVHRIGRTGRVGNLGLATSFFNERNINITKDLLDLLVEAKQEVPSWLENMAYEHHYKGSSRGRSKSSRFSGGFGARDYRQSSGASSSSFSSSRASSSRSGGGGHGSSRGFGGGGYGGFYNSDGYGGNYNSQGVDWWGN
notes: also called CARD-truncated DDX3; dominant negative mutant DDX3 lacking aa 1-150
Take B1: the binding result in the assay with cIAP1 [1] was “no binding”.

B2: DDX3Δ101-662 (other)
chain: RSDYDGIGSRGDRSGFGKFERGGNSRWCDKSDEDDWSKPLPPSERLEQELFSGGNTGINFEKYDDIPVEATGNNCPPHIESFSDVEMGEIIMGNIELTRYTRPTPVQKHAIPIIKEKRDLMACAQTGSGKTAAFLLPILSQIYSDGPGEALRAMKENGRYGRRKQYPISLVLAPTRELAVQIYEEARKFSYRSRVRPCVVYGGADIGQQIRDLERGCHLLVATPGRLVDMMERGKIGLDFCKYLVLDEADRMLDMGFEPQIRRIVEQDTMPPKGVRHTMMFSATFPKEIQMLARDFLDEYIFLAVGRVGSTSENITQKVVWVEESDKRSFLLDLLNATGKDSLTLVFVETKKGADSLEDFLYHEGYACTSIHGDRSQRDREEALHQFRSGKSPILVATAVAARGLDISNVKHVINFDLPSDIEEYVHRIGRTGRVGNLGLATSFFNERNINITKDLLDLLVEAKQEVPSWLENMAYEHHYKGSSRGRSKSSRFSGGFGARDYRQSSGASSSSFSSSRASSSRSGGGGHGSSRGFGGGGYGGFYNSDGYGGNYNSQGVDWWGN
notes: Transfected into HEK293A cells and pulled down with nickel beads; also called the DDX3 with the first 100 aa deleted; N-terminal aa 1-aa 100 deleted DDX3; not shown: N-terminal 6-His tag of the pcDNA3.1-His vector
B2: the binding result with cIAP1 [2] is recorded as “no binding”.
